Laboratory results published in the nanobody polyreactivity screen of Harvey et al. (2022).

Experiment: yeast display, Sf9 membrane polyspecificity reagent, FACS + sequencing; frameworks hold sequencing errors
How it was run: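 Nanobodies came from a synthetic yeast display library in Saccharomyces cerevisiae BJ5465, induced with galactose for 36–48 hours and stained for 1 hour at 4 °C with 10% biotinylated, detergent-solubilized Sf9 membrane reagent. Cells were enriched on streptavidin microbeads and then FACS-sorted, with low and high (top ~1%) gates set on anti-HA fluorescence for expression and streptavidin fluorescence for reagent binding. Each polyreactivity label reflects the gate a clone came from. Genes were amplified by colony PCR, sequenced by MiSeq 2 × 250 and filtered by CDR length.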
In the case of “QVQLVESGGGLVQAGGSLRLSCAASGLTFLVNAMGWYRQAPGKEREFVSVITTDGGGTYYADSVKGRFTISRDNAKNTVYLQMNSLKPEDTAVYYCAAESKYRTAATSYRLDYDYWGQGTQVTVSS”, the “polyreactivity (PSR sort gate)” value is reported as “low polyreactivity”.
With “QVQLVESGGGLVQAGGSLRLSCAASGLTFLVYAMGWYRQAPGKERELVAAITSIGDSTFYADSVKGRFTISRDNAKNTVYLQMNSLKPEDTAVYYCNADGPAGDNKFTLLDYDYWGQGTQVTVSS” the “polyreactivity (PSR sort gate)” value was “low polyreactivity”.
In the case of “QVQLVESGGGLVQAGGSLRLSCAASGLTFLWYAMGWYRQAPGKERELVAAITSGGRTKYADSVKGRFTISRDNAKNTVYLQMNSLKPEDTAVYYCAAYTQWWVYDYWGQGTQVTVSS”, the “polyreactivity (PSR sort gate)” value is reported as “high polyreactivity”.
In the case of “QVQLVESGGGLVQAGGSLRLSCAASGLTFNFNAMGWYRQAPGKERELVAAISYRAGSTYYADSVKGRFTISRDNAKNSVYLQMNSLKPEDTAVYYCAADGYYYLKSGTYVSDYWGQGTQVTVSS”, the “polyreactivity (PSR sort gate)” value is reported as “low polyreactivity”.
In the case of “QVQLVESGGGLVQAGGSLRLSCAASGLTFNKNAMGWYRQAPGKESEFVAAITRRGGSTYYADSVKGRFTISRDNAKNTVFLQMNSLKPEDTAVYYCAVYPASVNPYHYDYWGQGTQVTVSS”, the “polyreactivity (PSR sort gate)” value is reported as “high polyreactivity”.
With “QVQLVESGGGLVQAGGSLRLSCAASGLTFNVYAMGWYRPAPGKERELVASITKRGGSTYYADSVKGRFTISRDNAKNTVYLQMNSLKPEDTAVYYCAADGLTGSKYRATGYYWGQGTQVTVSS” the “polyreactivity (PSR sort gate)” value was “high polyreactivity”.
In the case of “QVQLVESGGGLVQAGGSLRLSCAASGLTFPFYVMGWYRQAPGKERELVAAISASGASTYYADSVKGRFTISRDNAKNTVYLQMNSLKPEDTAVYYCAALGYGFSYRYDYWGQGTQVTVSS”, the “polyreactivity (PSR sort gate)” value is reported as “high polyreactivity”.
For “QVQLVESGGGLVQAGGSLRLSCAASGLTFPGYAMGWYRQAPVKERELVAAISYSSGSTYYADSVKGRFTISRDNAKNTVYLQMNILKQEDTEVYYCNRVYRFRGITELDYWGQGTQVTVSS”, the “polyreactivity (PSR sort gate)” value was “high polyreactivity”.
For “QVQLVESGGGLVQAGGSLRLSCAASGLTFPQYAMGWYIQAPGKERELVAAISKTGGSTYYADSVKGRFTISRDNAKNTVYLLMNSLKPEDTAVYYCAAGSSVTPYRYYYWGQGTQVTVSS”, the “polyreactivity (PSR sort gate)” value was “high polyreactivity”.
With “QVQLVESGGGLVQAGGSLRLSCAASGLTFPVYAMGWYRQAPGKERELVAAISKSGGNTYYADSVKGRFTISRDNAKNTVYLQMNSLKPEDTAVYYCAAGYLSGNYARYGYWGQGTQVTVSS” the “polyreactivity (PSR sort gate)” value was “high polyreactivity”.
With “QVQLVESGGGLVQAGGSLRLSCAASGLTFPYYAMGWYRQAPGKERELVATISWSSISTYYADSVKGRFTISRDNAKNTVYLQMNSLKPEDTAVYYCNARYSLRRGYDYWGQGTQVTVSS” the “polyreactivity (PSR sort gate)” value was “low polyreactivity”.
With “QVQLVESGGGLVQAGGSLRLSCAASGLTFPYYAMGWYRQAPGTERELVAVITTSTGTTYYADSVKGRFTMSRDNAKNTVYLQMNSLKPEDTAVYYCATDTGAYWFSLYDYWGQGTQVTVSS” the “polyreactivity (PSR sort gate)” value was “low polyreactivity”.
In the case of “QVQLVESGGGLVQAGGSLRLSCAASGLTFQNNAMGRSRQAPGKERELVAVITRIGGSTYYADSVKGRFTISRDNAKNTVYLQLNSLKPEDTAVYYCAVRRRYTPGYDYWGQGTQVTVSS”, the “polyreactivity (PSR sort gate)” value is reported as “high polyreactivity”.
In the case of “QVQLVESGGGLVQAGGSLRLSCAASGLTFQNNARGWYRQAPGKERELVAAISDGGSTYYADSVKGRFTISRDNAKNTVYLQMNSLKPEDTGVYYCNADYGGWDYLYTSDQDNEYGYWGQGTQVTVSS”, the “polyreactivity (PSR sort gate)” value is reported as “low polyreactivity”.
For “QVQLVESGGGLVQAGGSLRLSCAASGLTFQSYAMGWYRQAPGKEREFAYYADSVKGRFTMSRDNAKNTVYLQMNSLKPEDTAVYYCNGADDEGDRPITQVGYDYWGQGTQVTVSS”, the “polyreactivity (PSR sort gate)” value was “low polyreactivity”.
For “QVQLVESGGGLVQAGGSLRLSCAASGLTFQYNAMGWYRQAPGKERELVAAISWSGGSTYYADSVKGRFTISRDNAKNTVYLQMNSLNPEDTAVYYCAAVYLHKSYARRMDYWGQGTQVTVSS”, the “polyreactivity (PSR sort gate)” value was “low polyreactivity”.
With “QVQLVESGGGLVQAGGSLRLSCAASGLTFRAYVMGWYRQAPGKERELVAAISVSGGSTYYADSVKGRFTISRDNAKNTVYLQMNSLKPEDTAVYYCAAAAKSWLFDYWGQGTQVTVSS” the “polyreactivity (PSR sort gate)” value was “high polyreactivity”.
With “QVQLVESGGGLVQAGGSLRLSCAASGLTFRINAMGWYRQAPGKERELVAAITDSGTSTSYADSVKGRFTISRDNAKNTVYLQMKSLKPEDTAVYYCAADVRPGYYLYRSWGAYDYWGQGTQVTVSS” the “polyreactivity (PSR sort gate)” value was “low polyreactivity”.
For “QVQLVESGGGLVQAGGSLRLSCAASGLTFRKNAMGWYRQAPGKERELVAAISFSGDRTYYADSVKGRFTISRDNAKNTVYLQMNSLKPEDTAVYYCAARSGVPGLEYDYWGQGTQVTVSS”, the “polyreactivity (PSR sort gate)” value was “low polyreactivity”.
For “QVQLVESGGGLVQAGGSLRLSCAASGLTFRKNAMGWYRQAPGKERELVAAISTGGRTYYADSVKGRFTISRDNAKNTVYLQMNSLKPEDTAVYYFNSVSVKSGLDYWGQGTQVTVSS”, the “polyreactivity (PSR sort gate)” value was “high polyreactivity”.
In the case of “QVQLVESGGGLVQAGGSLRLSCAASGLTFRPYTMGWYRQAPGKERELVAAISARGGRTYYADSVKGRFTISRDNAKNTVYLQMNSLKPEDTAVYYCATLETTGVNYWGQGTQVTVSS”, the “polyreactivity (PSR sort gate)” value is reported as “high polyreactivity”.
For “QVQLVESGGGLVQAGGSLRLSCAASGLTFRRNAMGWYRQAPGKERELVAAITARGTSTYYADSVKGRFSISRDNAKNTVYLQMNSLKPEDTAVYYCNVRWHRTRSEYDYWGQGTQVTVSS”, the “polyreactivity (PSR sort gate)” value was “high polyreactivity”.
With “QVQLVESGGGLVQAGGSLRLSCAASGLTFRRNAMGWYRQAPGKERELVAVNSRSGGSTYYADSVKGRFTISRDNAKNTVYLQMNCLKPEDTAVYYCNKRTRRTYDYWGQGTQVTVSS” the “polyreactivity (PSR sort gate)” value was “high polyreactivity”.
With “QVQLVESGGGLVQAGGSLRLSCAASGLTFRRYDMGWYRQAPGKERELVAAITGGGSTYYADSVKGRFTISRDNAKNTVYLQMNSLKPEDTAVYYCAAGTWYWSYAYDYWGQGTQVTVSS” the “polyreactivity (PSR sort gate)” value was “high polyreactivity”.
In the case of “QVQLVESGGGLVQAGGSLRLSCAASGLTFRRYGMGWYRQAPGKERELVASISSRGGNTYYADSVKGRFTISRDNAKNTVYLQMNSLKPEDTAVYYCATGVSTRYEYWGQGTQVTVSS”, the “polyreactivity (PSR sort gate)” value is reported as “high polyreactivity”.
For “QVQLVESGGGLVQAGGSLRLSCAASGLTFRVYDMGWYRQAPGKERELVAAITGGGRTYYADSVKGRFTISRDNAKNTVYLQMNSLKPEDTAVYYCAARTRVTKREYDYWGQGTQVTVSS”, the “polyreactivity (PSR sort gate)” value was “high polyreactivity”.
With “QVQLVESGGGLVQAGGSLRLSCAASGLTFRYNAMGWYRQAPGKERELVARISRNGGRTYYADSVKGRFTISRDNAKNTVYLQMNSLKPEDTAVYYCNVVYFVTTSPGYDYWGQGTQVTVSS” the “polyreactivity (PSR sort gate)” value was “high polyreactivity”.
With “QVQLVESGGGLVQAGGSLRLSCAASGLTFRYNTMGWYRQAPGKEREFVAAINYGGGSTYYADSVKGRFTISRDNAKNTVYLQMNSLKPEDTAVYYCARRTPRTPVTLYDYWGQGTQVTVSS” the “polyreactivity (PSR sort gate)” value was “high polyreactivity”.
For “QVQLVESGGGLVQAGGSLRLSCAASGLTFRYYAMGGYRQAPGKERELDAAITSSGTSTYYADSVKGRFTISRDNAKNTVSLQMNSLKPEDTAVYYCAARYSGGTWSGYNYWGQGTQVTVSS”, the “polyreactivity (PSR sort gate)” value was “high polyreactivity”.
With “QVQLVESGGGLVQAGGSLRLSCAASGLTFRYYAMGWYRQAPGKERELVAAITRGARTNYADSVKGRFTISRDNAKNTVYLQMNSLKPEDTAVYYCNAGFTGLHRYGYWGQGTQVTVSS” the “polyreactivity (PSR sort gate)” value was “high polyreactivity”.
In the case of “QVQLVESGGGLVQAGGSLRLSCAASGLTFRYYAMGWYRQAPGKERELVATITGSGGSTYYADSVKGRFTISRDNAKNTVYFQMNSLNPEYTAVYYCAATVRVYDYWGQGTQVNVSS”, the “polyreactivity (PSR sort gate)” value is reported as “high polyreactivity”.
For “QVQLVESGGGLVQAGGSLRLSCAASGLTFSGYAMGWYRQAPGKERELVAAISWRGGSTYYADSVKGRFTISRDNAKNTVYLQMNSLKPEDTAVYYCNRARVQDYPYYYWGQGTQVTVSS”, the “polyreactivity (PSR sort gate)” value was “high polyreactivity”.
